Experimental data as given in the supplement of paper PMC9112550, “Optimization of the antimicrobial peptide Bac7 by deep mutational scanning” (BMC Biology, 2022).

Each sequence was assayed on Escherichia coli TOP10 (assay: shrunken log2 fold change of peptide-encoding DNA abundance (4.5 h post-induction vs induction); higher = less antimicrobial activity (less host growth inhibition)). Conditions: time post-induction: 4.5 h; library: site-saturation at positions 5, 18, 19, 20.
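Note: peptides expressed intracellularly from a pBAD plasmid library in pooled LB shake-flask culture, induced with 0.3% L-arabinose, DNA abundance read by NGS, three biological replicates, DESeq2 with apeglm shrinkage.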

Sequence | shrunken log2 fold change
RRIRKRPPRLPRPRPRPKVTPRP | 0.0261
RRIRKRPPRLPRPRPRPKVWPRP | 0.354
RRIRKRPPRLPRPRPRPKWIPRP | -0.111
RRIRKRPPRLPRPRPRPKYKPRP | -0.19
RRIRKRPPRLPRPRPRPLATPRP | 0.527
RRIRKRPPRLPRPRPRPLAVPRP | 0.0855
RRIRKRPPRLPRPRPRPLCNPRP | 1.06
RRIRKRPPRLPRPRPRPLEAPRP | 0.505
RRIRKRPPRLPRPRPRPLEIPRP | 0.281
RRIRKRPPRLPRPRPRPLEWPRP | -0.0047
RRIRKRPPRLPRPRPRPLFGPRP | 0.439
RRIRKRPPRLPRPRPRPLHMPRP | 0.102
RRIRKRPPRLPRPRPRPLIVPRP | -0.223
RRIRKRPPRLPRPRPRPLLHPRP | 0.108
RRIRKRPPRLPRPRPRPLLQPRP | 0.31
RRIRKRPPRLPRPRPRPLMNPRP | 0.158
RRIRKRPPRLPRPRPRPLMPPRP | 0.232
RRIRKRPPRLPRPRPRPLMWPRP | 0.284
RRIRKRPPRLPRPRPRPLMYPRP | -0.0706
RRIRKRPPRLPRPRPRPLNDPRP | -0.0546
RRIRKRPPRLPRPRPRPLNRPRP | -0.0492
RRIRKRPPRLPRPRPRPLPVPRP | 0.431
RRIRKRPPRLPRPRPRPLQTPRP | 0.182
RRIRKRPPRLPRPRPRPLRGPRP | 0.873
RRIRKRPPRLPRPRPRPLRLPRP | 1.16

Sequence | shrunken log2 fold change
RRIRKRPPRLPRPRPRPLSQPRP | 0.028
RRIRKRPPRLPRPRPRPLWEPRP | 0.163
RRIRKRPPRLPRPRPRPMALPRP | -0.00663
RRIRKRPPRLPRPRPRPMDIPRP | 0.0655
RRIRKRPPRLPRPRPRPMDPPRP | 0.115
RRIRKRPPRLPRPRPRPMEHPRP | -0.0568
RRIRKRPPRLPRPRPRPMFDPRP | 0.166
RRIRKRPPRLPRPRPRPMFFPRP | -0.14
RRIRKRPPRLPRPRPRPMGQPRP | 0.0265
RRIRKRPPRLPRPRPRPMHDPRP | 0.321
RRIRKRPPRLPRPRPRPMHFPRP | 0.0573
RRIRKRPPRLPRPRPRPMHGPRP | 0.272
RRIRKRPPRLPRPRPRPMIIPRP | -0.0318
RRIRKRPPRLPRPRPRPMLTPRP | 0.189
RRIRKRPPRLPRPRPRPMTAPRP | 0.832
RRIRKRPPRLPRPRPRPMTFPRP | -0.00803
RRIRKRPPRLPRPRPRPMVWPRP | 0.722
RRIRKRPPRLPRPRPRPMYIPRP | -0.0457
RRIRKRPPRLPRPRPRPMYQPRP | 0.056
RRIRKRPPRLPRPRPRPNASPRP | 0.236
RRIRKRPPRLPRPRPRPNCRPRP | 0.00408
RRIRKRPPRLPRPRPRPNEKPRP | 0.218
RRIRKRPPRLPRPRPRPNENPRP | 0.304
RRIRKRPPRLPRPRPRPNEQPRP | 0.11
RRIRKRPPRLPRPRPRPNFSPRP | -0.084

Sequence | shrunken log2 fold change
RRIRKRPPRLPRPRPRPNFVPRP | 0.309
RRIRKRPPRLPRPRPRPNGCPRP | -0.0163
RRIRKRPPRLPRPRPRPNGNPRP | -0.146
RRIRKRPPRLPRPRPRPNGQPRP | 0.203
RRIRKRPPRLPRPRPRPNGSPRP | 0.0677
RRIRKRPPRLPRPRPRPNHEPRP | -0.0766
RRIRKRPPRLPRPRPRPNHSPRP | -0.321
RRIRKRPPRLPRPRPRPNKIPRP | 0.0339
RRIRKRPPRLPRPRPRPNMCPRP | 0.0251
RRIRKRPPRLPRPRPRPNMGPRP | -0.215
RRIRKRPPRLPRPRPRPNMLPRP | -0.0107
RRIRKRPPRLPRPRPRPNMYPRP | -0.14
RRIRKRPPRLPRPRPRPNNKPRP | -0.162
RRIRKRPPRLPRPRPRPNNNPRP | -0.255
RRIRKRPPRLPRPRPRPNRVPRP | -0.00538
RRIRKRPPRLPRPRPRPNSPPRP | -0.027
RRIRKRPPRLPRPRPRPNSVPRP | 0.0305
RRIRKRPPRLPRPRPRPNVWPRP | 0.258
RRIRKRPPRLPRPRPRPNWFPRP | 0.188
RRIRKRPPRLPRPRPRPPAQPRP | 0.698
RRIRKRPPRLPRPRPRPPATPRP | 0.773
RRIRKRPPRLPRPRPRPPCGPRP | 0.614
RRIRKRPPRLPRPRPRPPCMPRP | -0.0208
RRIRKRPPRLPRPRPRPPDDPRP | 1.99
RRIRKRPPRLPRPRPRPPFEPRP | 0.143

Sequence | shrunken log2 fold change
RRIRKRPPRLPRPRPRPPFMPRP | 0.517
RRIRKRPPRLPRPRPRPPFPPRP | 0.582
RRIRKRPPRLPRPRPRPPHGPRP | 0.634
RRIRKRPPRLPRPRPRPPHNPRP | 0.465
RRIRKRPPRLPRPRPRPPLEPRP | 0.456
RRIRKRPPRLPRPRPRPPLRPRP | 0.708
RRIRKRPPRLPRPRPRPPNQPRP | 0.17
RRIRKRPPRLPRPRPRPPNTPRP | 0.408
RRIRKRPPRLPRPRPRPPPFPRP | 0.442
RRIRKRPPRLPRPRPRPPPNPRP | 0.982
RRIRKRPPRLPRPRPRPPRCPRP | 0.578
RRIRKRPPRLPRPRPRPPRHPRP | 1.04
RRIRKRPPRLPRPRPRPPSTPRP | 0.661
RRIRKRPPRLPRPRPRPPSYPRP | 0.667
RRIRKRPPRLPRPRPRPPTNPRP | 0.654
RRIRKRPPRLPRPRPRPPVLPRP | -0.0742
RRIRKRPPRLPRPRPRPPYAPRP | 0.424
RRIRKRPPRLPRPRPRPQDNPRP | -0.0637
RRIRKRPPRLPRPRPRPQGTPRP | -0.0539
RRIRKRPPRLPRPRPRPQHTPRP | 0.0113
RRIRKRPPRLPRPRPRPQIMPRP | -0.103
RRIRKRPPRLPRPRPRPQITPRP | -0.0657
RRIRKRPPRLPRPRPRPQMYPRP | -0.192
RRIRKRPPRLPRPRPRPQNCPRP | -0.132
RRIRKRPPRLPRPRPRPQNEPRP | -0.0827

Sequence | shrunken log2 fold change
RRIRKRPPRLPRPRPRPQPSPRP | 0.567
RRIRKRPPRLPRPRPRPQQKPRP | 0.206
RRIRKRPPRLPRPRPRPQRKPRP | 0.71
RRIRKRPPRLPRPRPRPQSQPRP | 0.249
RRIRKRPPRLPRPRPRPQTFPRP | 0.117
RRIRKRPPRLPRPRPRPQTRPRP | 0.358
RRIRKRPPRLPRPRPRPQVEPRP | 0.248
RRIRKRPPRLPRPRPRPQVKPRP | 0.0274
RRIRKRPPRLPRPRPRPQYYPRP | -0.359
RRIRKRPPRLPRPRPRPRDCPRP | 0.306
RRIRKRPPRLPRPRPRPRDMPRP | 0.0936
RRIRKRPPRLPRPRPRPRDTPRP | 0.258
RRIRKRPPRLPRPRPRPREHPRP | 0.0968
RRIRKRPPRLPRPRPRPREIPRP | 0.736
RRIRKRPPRLPRPRPRPRFLPRP | 0.101
RRIRKRPPRLPRPRPRPRIAPRP | 0.599
RRIRKRPPRLPRPRPRPRILPRP | 0.0416
RRIRKRPPRLPRPRPRPRINPRP | 0.0244
RRIRKRPPRLPRPRPRPRKKPRP | 0.381
RRIRKRPPRLPRPRPRPRKVPRP | 0.596
RRIRKRPPRLPRPRPRPRLEPRP | 0.782
RRIRKRPPRLPRPRPRPRLIPRP | 0.234
RRIRKRPPRLPRPRPRPRMKPRP | 0.346
RRIRKRPPRLPRPRPRPRNLPRP | 0.525
RRIRKRPPRLPRPRPRPRPKPRP | 1.03

Sequence | shrunken log2 fold change
RRIRKRPPRLPRPRPRPRQNPRP | 0.586
RRIRKRPPRLPRPRPRPRQPPRP | 0.467
RRIRKRPPRLPRPRPRPRRGPRP | 0.799
RRIRKRPPRLPRPRPRPRRPPRP | 0.544
RRIRKRPPRLPRPRPRPRRSPRP | 0.0846
RRIRKRPPRLPRPRPRPRSKPRP | 0.254
RRIRKRPPRLPRPRPRPRSTPRP | 0.177
RRIRKRPPRLPRPRPRPRTHPRP | 0.425
RRIRKRPPRLPRPRPRPRVGPRP | 0.279
RRIRKRPPRLPRPRPRPRVSPRP | 0.198
RRIRKRPPRLPRPRPRPRVTPRP | 0.138
RRIRKRPPRLPRPRPRPRYYPRP | -0.248
RRIRKRPPRLPRPRPRPSCGPRP | 0.817
RRIRKRPPRLPRPRPRPSCNPRP | 0.149
RRIRKRPPRLPRPRPRPSCSPRP | -0.0597
RRIRKRPPRLPRPRPRPSDDPRP | 0.154
RRIRKRPPRLPRPRPRPSFDPRP | 0.301
RRIRKRPPRLPRPRPRPSFPPRP | -0.0425
RRIRKRPPRLPRPRPRPSGIPRP | 0.149
RRIRKRPPRLPRPRPRPSGQPRP | 0.244
RRIRKRPPRLPRPRPRPSGYPRP | -0.0136
RRIRKRPPRLPRPRPRPSHLPRP | -0.124
RRIRKRPPRLPRPRPRPSKCPRP | -0.388
RRIRKRPPRLPRPRPRPSKLPRP | 0.0104
RRIRKRPPRLPRPRPRPSKVPRP | -0.131
